Test results reported in US20250345451A1.

Key:
[1] = biological target: Human TGF-β1 (acrobiosystems, TG1-H421) (human) (UniProt P01137)
[2] = biological target: Human TGF-β1 (acrobiosystems, TG1-H421) (human) (UniProt P01137); experiment: ELISA on coated human TGF-β1, anti-human Fc-HRP, absorbance at 450 nm (top panel)
[3] = biological target: Human TGF-β3 (PeproTech, 100-36E) (human) (UniProt P10600); experiment: ELISA on coated human TGF-β3, anti-human Fc-HRP, absorbance at 450 nm (bottom panel)
Human TGF-β3 (PeproTech, 100-36E) (human), sequence (P10600 301-412 limits assumed): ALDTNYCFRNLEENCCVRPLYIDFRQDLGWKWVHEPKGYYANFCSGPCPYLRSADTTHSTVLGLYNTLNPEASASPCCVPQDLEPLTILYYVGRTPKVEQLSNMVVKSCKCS

[4] = biological target: human PD-L1 on CHO-hPD-L1 cells (human) (UniProt Q9NZQ7); experiment: flow cytometry on CHO cells overexpressing human PD-L1, median fluorescence intensity PE-A
human PD-L1 on CHO-hPD-L1 cells (human), sequence (Q9NZQ7 19-290): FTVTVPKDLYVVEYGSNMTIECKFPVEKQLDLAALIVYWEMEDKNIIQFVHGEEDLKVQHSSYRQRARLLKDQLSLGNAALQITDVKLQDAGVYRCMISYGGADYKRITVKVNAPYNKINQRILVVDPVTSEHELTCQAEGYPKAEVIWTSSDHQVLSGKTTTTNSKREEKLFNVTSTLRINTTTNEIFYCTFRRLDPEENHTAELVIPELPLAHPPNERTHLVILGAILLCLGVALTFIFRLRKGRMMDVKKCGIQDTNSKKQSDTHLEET

[5] = biological target: biotinylated human PD-L1 protein (purchased from AcroBiosystems) (human) (UniProt Q9NZQ7); experiment: blocking assay by flow cytometry: PD-L1 protein pre-incubated with the sample, binding to human PD-1 on CHO-hPD-1 cells
biotinylated human PD-L1 protein (purchased from AcroBiosystems) (human), sequence (Q9NZQ7 19-238 limits assumed): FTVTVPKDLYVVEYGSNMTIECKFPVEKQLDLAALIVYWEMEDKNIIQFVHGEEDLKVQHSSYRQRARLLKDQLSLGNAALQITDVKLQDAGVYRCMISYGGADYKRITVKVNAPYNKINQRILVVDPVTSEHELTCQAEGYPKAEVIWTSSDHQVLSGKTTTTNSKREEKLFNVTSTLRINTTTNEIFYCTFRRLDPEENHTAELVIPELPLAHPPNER

[6] = biological target: human PD-L1 on CHO-hPD-L1 cells (human) (UniProt Q9NZQ7); experiment: flow cytometry on CHO-hPD-L1 cells, PE anti-human IgG-Fc; table under the lower panel prints no unit, concentration axis is in nM

Human TGF-β1 (acrobiosystems, TG1-H421) (human), sequence (P01137 279-390 limits assumed): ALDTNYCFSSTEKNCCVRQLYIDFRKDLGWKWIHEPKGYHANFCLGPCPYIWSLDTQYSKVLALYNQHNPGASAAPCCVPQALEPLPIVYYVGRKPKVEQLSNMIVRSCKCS

Substance | IC50 (read off the curve) [1] | EC50 (read off the curve) [2] | EC50 (read off the curve) [3] | EC50 (read off the curve) [4] | IC50 (read off the curve) [5] | EC50 [6]
M7824 | 0.3 nM | 1 nM | 0.6 nM | 3 nM | 4 nM | –
TGF-βR2-Fc (Fc fusion) | 0.4 nM | 0.8 nM | 0.6 nM | – | – | –
… (atezolizumab) (antibody) | – | – | – | – | – | 2.27 nM
